Source: patent US7074595B2, “General means of labeling protein by using wheat embryo cell-free protein synthesis system” (CellFree Sciences Co., Ltd., priority 2000, dated 2006)

Assays:
Format in all cases: biochemical
[1] = substrate: NC(=O)C1=CN([C@@H]2O[C@H](COP(=O)(O)OP(=O)(O)OC[C@H]3O[C@@H](n4cnc5c(N)ncnc54)[C@H](OP(=O)(O)O)[C@@H]3O)[C@@H](O)[C@H]2O)C=CC1; assay: enzymatic properties of DHFR (Table 1): Michaelis constant and maximum velocity, Met-DHFR; conditions: other: Met-DHFR
Protocol: (§1) Purification of GFP and measurement of its activity by analysis of fluorescence spectrum using a fluorospectrophotometer were carried out in accordance with a method by Deschamps, et al. [Deschamps, J. R. et al., (1995) Protein Expression and Purification, 6, 555–558]. In the measurement of fluorescence spectrum, a fluorophotometer of type RF-5000 by Shimadzu was used. DHFR activity was measured by a method of Stanley, et al. [Methods. Enzymol. 18, 195–199 (1971)].
(§2) Then enzymatic properties of the selenomethionine-containing proteins purified as such were investigated biochemically. Fluorescence emission spectrum of a certain concentration of the purified GFP preparation shown in FIG. 2 excited at the wavelength of 395 nm was measured within a range of 410 nm to 600 nm and the result is shown in FIG. 3. As will be apparent from FIG. 3, there is no difference between the fluorescence emission spectra of GFP [(A) in FIG. 3] and selenomethionine GFP [(B) in FIG. 3]. Thus, the conclusion is that the change in GFP activity by substituting methionine residue with selenomethionine is not higher than the usual measurement sensitivity. […]

[2] = substrate: NC(=O)C1=CN([C@@H]2O[C@H](COP(=O)(O)OP(=O)(O)OC[C@H]3O[C@@H](n4cnc5c(N)ncnc54)[C@H](OP(=O)(O)O)[C@@H]3O)[C@@H](O)[C@H]2O)C=CC1; assay: enzymatic properties of DHFR (Table 1): Michaelis constant and maximum velocity, SeMet-DHFR; conditions: other: SeMet-DHFR
Protocol: as §1, §2

[3] = substrate: NC(=O)C1=CN([C@@H]2O[C@H](COP(=O)(O)OP(=O)(O)OC[C@H]3O[C@@H](n4cnc5c(N)ncnc54)[C@H](OP(=O)(O)O)[C@@H]3O)[C@@H](O)[C@H]2O)C=CC1; assay: enzymatic properties of DHFR (Table 2): Michaelis constant and maximum velocity, Natural-Type DHFR; conditions: other: Natural-Type DHFR
Protocol: as §1
Then enzymatic properties of the purified heavy hydrogen-labeled DHFR were biochemically investigated by the same manner as in Example 1. As will be apparent from Table 2, both Vmax and Michaelis constant (Km) to NADPH which are parameters for enzymatic chemical property of natural-type DHFR and heavy hydrogen-labeled DHFR show no difference between both enzymes. Thus, it became clear that DHFR comprising heavy hydrogen-labeled amino acids maintained nearly the same enzymatic activity as the natural-type DHFR.

[4] = substrate: NC(=O)C1=CN([C@@H]2O[C@H](COP(=O)(O)OP(=O)(O)OC[C@H]3O[C@@H](n4cnc5c(N)ncnc54)[C@H](OP(=O)(O)O)[C@@H]3O)[C@@H](O)[C@H]2O)C=CC1; assay: enzymatic properties of DHFR (Table 2): Michaelis constant and maximum velocity, Heavy Hydrogen-Labeled DHFR; conditions: other: Heavy Hydrogen-Labeled DHFR
Protocol: as §1
With regard to the wheat embryo, that being contaminated with substantially no endosperm component prepared by the method mentioned in Example 1 was used. Preparation of an extract from wheat embryo was carried out by the exactly same method as Example 1 except that the solution for extraction and the solution used for gel filtration contained 20 kinds of heavy hydrogen-labeled L-amino acids instead of 20 kinds of selenomethionine-containing L-amino acids. Concentration of the prepared extract was adjusted to 170˜250 A260 nm (A260/A280=1.5).
Although the composition of the protein synthesis reaction solution is as same as that described in Example 1, it contains 20 kinds of heavy hydrogen-labeled L-amino acids instead of 20 kinds of selenomethionine-containing L-amino acids.
Then enzymatic properties of the purified heavy hydrogen-labeled DHFR were biochemically investigated by the same manner as in Example 1. […]

B1: dihydrofolate reductase (DHFR), natural-type methionine-containing (Met-DHFR) (Escherichia coli K-12) (protein)
chain: MISLIAALAVDRVIGMENAMPWNLPADLAWFKRNTLNKPVIMGRHTWESIGRPLPGRKNIILSSQPGTDDRVTWVKSVDEAIAACGDVPEIMVIGGGRVYEQFLPKAQKLYLTHIDAEVEGDTHFPDYEPDDWESVFSEFHDADAQNSHSYCFEILERR
notes: made in house; host or cells: wheat embryo extract cell-free protein synthesis (dialysis type)
- Km [1]: 11.2 µM

B2: dihydrofolate reductase (DHFR), selenomethionine-containing (SeMet-DHFR) (Escherichia coli K-12) (protein)
chain: MISLIAALAVDRVIGMENAMPWNLPADLAWFKRNTLNKPVIMGRHTWESIGRPLPGRKNIILSSQPGTDDRVTWVKSVDEAIAACGDVPEIMVIGGGRVYEQFLPKAQKLYLTHIDAEVEGDTHFPDYEPDDWESVFSEFHDADAQNSHSYCFEILERR
notes: as for B1
- Km [2]: 10.2 µM

B3: dihydrofolate reductase (DHFR), Natural-Type DHFR (Escherichia coli K-12) (protein)
chain: MISLIAALAVDRVIGMENAMPWNLPADLAWFKRNTLNKPVIMGRHTWESIGRPLPGRKNIILSSQPGTDDRVTWVKSVDEAIAACGDVPEIMVIGGGRVYEQFLPKAQKLYLTHIDAEVEGDTHFPDYEPDDWESVFSEFHDADAQNSHSYCFEILERR
notes: as for B1
- Km [3]: 13.2 µM

B4: dihydrofolate reductase (DHFR), Heavy Hydrogen-Labeled DHFR (20 kinds of heavy hydrogen-labeled L-amino acids) (Escherichia coli K-12) (protein)
chain: MISLIAALAVDRVIGMENAMPWNLPADLAWFKRNTLNKPVIMGRHTWESIGRPLPGRKNIILSSQPGTDDRVTWVKSVDEAIAACGDVPEIMVIGGGRVYEQFLPKAQKLYLTHIDAEVEGDTHFPDYEPDDWESVFSEFHDADAQNSHSYCFEILERR
notes: as for B1
- Km [4]: 14.7 µM
